{"source": "paper PMC3764174", "molecular_target": "PCNA3_(N106R)-P450cam fusion protein (Sulfolobus solfataricus | Pseudomonas putida)", "data": [{"substance": "PCNA2-G4S(P5)4G4S-PdX", "values": [{"measurement": "substrate-dependent O2 consumption rate (monooxygenase activity) of PUPPET-P4 at 18 nM complex, 25°C", "value": 6.5, "unit": "µM/min"}]}]}
